Literature values, collected in paper PMC8894380.

Target: PRPF8 Jab1 (Saccharomyces cerevisiae) (UniProt P33334)
Sequence (P33334 2148-2395): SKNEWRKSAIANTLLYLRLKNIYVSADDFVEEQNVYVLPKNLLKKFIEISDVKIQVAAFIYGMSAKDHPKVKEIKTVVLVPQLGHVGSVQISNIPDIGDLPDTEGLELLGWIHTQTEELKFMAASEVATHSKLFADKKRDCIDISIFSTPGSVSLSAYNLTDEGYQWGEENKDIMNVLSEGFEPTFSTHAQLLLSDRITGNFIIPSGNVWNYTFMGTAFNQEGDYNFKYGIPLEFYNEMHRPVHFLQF

Chain of BRR2 helicase region (P32639 442-2163): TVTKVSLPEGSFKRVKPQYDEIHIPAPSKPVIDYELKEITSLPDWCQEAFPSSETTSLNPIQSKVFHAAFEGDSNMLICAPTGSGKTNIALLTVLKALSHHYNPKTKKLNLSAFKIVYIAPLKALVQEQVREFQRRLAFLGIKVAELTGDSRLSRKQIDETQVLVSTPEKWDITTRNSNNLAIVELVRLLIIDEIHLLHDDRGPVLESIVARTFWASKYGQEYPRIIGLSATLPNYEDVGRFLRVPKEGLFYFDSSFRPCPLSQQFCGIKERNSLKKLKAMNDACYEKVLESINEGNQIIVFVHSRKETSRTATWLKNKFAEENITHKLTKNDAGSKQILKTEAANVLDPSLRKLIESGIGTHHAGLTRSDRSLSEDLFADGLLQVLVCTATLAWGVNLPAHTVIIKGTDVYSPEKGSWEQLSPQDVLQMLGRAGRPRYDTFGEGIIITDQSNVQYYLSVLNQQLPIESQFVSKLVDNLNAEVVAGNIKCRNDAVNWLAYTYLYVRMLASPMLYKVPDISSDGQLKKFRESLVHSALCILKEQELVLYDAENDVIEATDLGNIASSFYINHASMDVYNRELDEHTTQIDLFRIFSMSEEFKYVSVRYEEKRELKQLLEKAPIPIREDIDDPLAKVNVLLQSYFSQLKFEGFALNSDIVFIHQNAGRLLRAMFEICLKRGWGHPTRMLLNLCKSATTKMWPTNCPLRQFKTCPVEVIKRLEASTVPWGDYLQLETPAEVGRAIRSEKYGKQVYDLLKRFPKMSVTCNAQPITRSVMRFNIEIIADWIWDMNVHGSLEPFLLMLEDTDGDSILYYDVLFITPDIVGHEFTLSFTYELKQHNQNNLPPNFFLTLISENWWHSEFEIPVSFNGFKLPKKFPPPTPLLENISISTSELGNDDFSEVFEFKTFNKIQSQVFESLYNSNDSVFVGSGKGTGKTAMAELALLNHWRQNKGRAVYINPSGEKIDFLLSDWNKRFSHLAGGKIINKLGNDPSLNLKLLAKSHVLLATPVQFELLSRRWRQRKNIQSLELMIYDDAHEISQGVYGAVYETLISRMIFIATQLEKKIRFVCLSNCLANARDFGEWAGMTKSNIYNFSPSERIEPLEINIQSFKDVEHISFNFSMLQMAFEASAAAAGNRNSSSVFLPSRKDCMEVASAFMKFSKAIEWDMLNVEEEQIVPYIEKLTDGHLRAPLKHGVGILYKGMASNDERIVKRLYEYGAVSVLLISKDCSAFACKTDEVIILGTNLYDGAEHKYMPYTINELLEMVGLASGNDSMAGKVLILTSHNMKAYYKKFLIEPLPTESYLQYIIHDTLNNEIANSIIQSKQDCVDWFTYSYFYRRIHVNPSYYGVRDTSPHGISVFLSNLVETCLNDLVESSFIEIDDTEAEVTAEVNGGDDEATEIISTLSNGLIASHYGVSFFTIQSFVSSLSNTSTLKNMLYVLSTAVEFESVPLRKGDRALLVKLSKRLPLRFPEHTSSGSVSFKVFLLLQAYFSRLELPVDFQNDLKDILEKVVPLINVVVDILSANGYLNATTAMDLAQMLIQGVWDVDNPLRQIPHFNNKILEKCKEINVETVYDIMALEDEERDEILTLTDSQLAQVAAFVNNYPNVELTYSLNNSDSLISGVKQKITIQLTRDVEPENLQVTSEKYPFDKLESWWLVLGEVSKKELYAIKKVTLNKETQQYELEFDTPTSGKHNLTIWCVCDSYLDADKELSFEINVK

- Kd: 8 nM
Substance: BRR2 helicase region (from UniProt P32639)
